Experiments:
[1] = biological target: TNFR1-TRAILR1-Fas chimeric receptor (TM1) (human) (UniProt P19438); experiment: radioligand binding; equilibrium (saturation) binding on cells: 2x10^5 murine fibroblasts expressing the receptor in PFA (PBS, 2% FCS, 0.002% sodium azide), 125I-TNF 0.25-12.5 ng/ml, 2 h on ice; non-specific binding with 200-fold excess of unlabeled protein; cells spun through phthalate oil; one site binding hyperbola; 51 kDa used for TNF; apparent
[2] = biological target: TNFR1-TRAILR2-Fas chimeric receptor (TM2) (human) (UniProt P19438); experiment: as above
[3] = biological target: TRAILR1-Fas chimeric receptor (human) (UniProt O00220); experiment: radioligand binding; competition on cells: 4x10^5 murine fibroblasts expressing the (chimeric) TRAIL receptor in PFA (PBS, 2% FCS, 0.002% sodium azide), 83 ng/ml 125I-TRAIL with or without unlabeled recombinant human TRAIL (83-5300 ng/ml), 4 hours on ice; cells spun through phthalate oil; 68 kDa used for TRAIL
[4] = biological target: TRAILR2-Fas chimeric receptor (human) (UniProt O14763); experiment: as above

125I-labeled recombinant human TNF (from UniProt P01375 77-233) (ligand)
Kd [1]: 225 nM | Kd [2]: 71 nM

Flag-tagged recombinant human TRAIL (sTRAIL), unlabeled (from UniProt P50591 95-281) (ligand)
IC50 [3]: 16.8 nM | IC50 [4]: 5.5 nM
